# Changes are numbered by the printed parent chain.
# T1: human C2 V455A (human, UniProt P06681 21-752)
# T1 sequence: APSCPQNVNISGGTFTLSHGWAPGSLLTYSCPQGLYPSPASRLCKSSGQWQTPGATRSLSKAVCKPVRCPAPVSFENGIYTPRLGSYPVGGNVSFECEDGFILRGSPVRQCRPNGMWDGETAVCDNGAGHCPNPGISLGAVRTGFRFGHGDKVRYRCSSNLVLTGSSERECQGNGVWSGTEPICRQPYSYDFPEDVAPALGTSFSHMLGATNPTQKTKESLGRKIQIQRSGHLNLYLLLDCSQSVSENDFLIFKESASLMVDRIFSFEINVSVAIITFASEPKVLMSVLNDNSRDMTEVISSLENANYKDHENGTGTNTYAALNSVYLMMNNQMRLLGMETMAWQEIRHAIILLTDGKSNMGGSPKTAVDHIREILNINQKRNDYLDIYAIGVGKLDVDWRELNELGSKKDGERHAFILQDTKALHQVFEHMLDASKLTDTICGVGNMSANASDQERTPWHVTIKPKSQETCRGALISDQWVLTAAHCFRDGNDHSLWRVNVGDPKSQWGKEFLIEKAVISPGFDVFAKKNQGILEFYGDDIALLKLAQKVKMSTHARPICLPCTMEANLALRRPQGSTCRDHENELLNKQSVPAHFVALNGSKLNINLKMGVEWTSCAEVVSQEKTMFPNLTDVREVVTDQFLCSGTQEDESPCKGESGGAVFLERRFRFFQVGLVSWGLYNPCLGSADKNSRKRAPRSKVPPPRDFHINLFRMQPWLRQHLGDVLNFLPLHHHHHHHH
# T2: human C2 M648A (human, UniProt P06681 21-752)
# T2 sequence: T1 sequence with A435V, M628A
# T3: human C2 P718A (human, UniProt P06681 21-752)
# T3 sequence: T1 sequence with A435V, P698A
# T4: human C2 F689A (human, UniProt P06681 21-752)
# T4 sequence: T1 sequence with A435V, F669A
# B1: RF16-226 (antibody, human IgG4 S228P, lambda)
# heavy: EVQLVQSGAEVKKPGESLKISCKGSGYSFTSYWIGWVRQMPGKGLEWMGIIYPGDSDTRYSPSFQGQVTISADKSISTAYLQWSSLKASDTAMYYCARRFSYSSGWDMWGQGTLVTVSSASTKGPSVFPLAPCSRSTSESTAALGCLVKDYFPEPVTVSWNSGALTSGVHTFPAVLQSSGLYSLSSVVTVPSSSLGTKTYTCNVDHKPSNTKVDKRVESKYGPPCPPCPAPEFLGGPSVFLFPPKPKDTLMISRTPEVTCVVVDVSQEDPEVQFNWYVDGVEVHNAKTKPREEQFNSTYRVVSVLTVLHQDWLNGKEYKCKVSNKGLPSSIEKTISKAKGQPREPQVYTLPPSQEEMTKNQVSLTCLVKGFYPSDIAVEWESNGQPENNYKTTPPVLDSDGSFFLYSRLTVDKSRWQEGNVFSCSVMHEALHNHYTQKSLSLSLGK
# light: SYELTQPPSVSVSPGQTARITCSGDALTSKYVAWYQQKSGLAPLLVIYEDTRRPSGIPAKFSGSSSGSVATLTISGAHGDDEADYYCYSTDASGHQRVFGGGTKLTVLSQPKAAPSVTLFPPSSEELQANKATLVCLISDFYPGAVTVAWKADGSPVKAGVETTKPSKQSNNKYAASSYLSLTPEQWKSHRSYSCQVTHEGSTVEKTVAPTECS
# notes: pH-dependent anti-C2 antibody from a phage display library; also called WT
# Legend:
# Assay in all cases: SPR, antibody captured, C2 as analyte;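 also: biacore SPR at 37 °C, anti-C2 mAbs captured via goat anti-human IgG on CM5 chips, double-referenced sensorgrams fit to a 1:1 kinetic or steady-state model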
# human C2 V455A = target: T1, human C2 V455A
# human C2 M648A = target: T2, human C2 M648A
# human C2 P718A = target: T3, human C2 P718A
# human C2 F689A = target: T4, human C2 F689A
binder,measurement,setting,value
B1,Kd,human C2 V455A,9 nM
same,Kd,human C2 M648A,203 nM
same,Kd,human C2 P718A,15.2 nM
same,Kd,human C2 F689A,9.3 nM

# Reference: patent US20220332804A1 (CSL INNOVATION, published 2022)
